In patent publication US20230063965A1 (YEDA RESEARCH AND DEVELOPMENT, published 2023):
One block for each binder: values may come before it.

Columns and labels:
FcgR1 = target: T1, FcgR1 (human, UniProt P12314); test: FcγR binding ELISA, plate-bound human FcγRI soluble ectodomain, serially diluted IgG, Δabsorbance 450 nm; panel FcgR1
T1 construct: soluble ectodomain; also called human FcγRI soluble ectodomain (ELISA); FcγRI
Experimental: (§1) ELISA plates (Nunc) were coated overnight at 4° C. with recombinant PD-L1 (1 μg/mL/well). All sequential steps were performed at room temperature in 2% BSA. After being washed, the plates were blocked for 1 hr with 1×PBS with 2% Bovine serum Albumin and were subsequently incubated for 1 hr with serially diluted IgGs. After washing, plates were incubated for 1 hr with HRP-conjugated anti-mouse IgG (Jackson ImmunoResearch). Detection was performed by TMB Soluble Reagent (ScyTek Laboratories) and reactions stopped with the addition of 0.18 M sulfuric acid. Absorbance at 450 nm was immediately recorded using a SpectraMax Plus spectrophotometer (Molecular Devices) and background absorbance from negative control samples was subtracted. […] After washing, plates were incubated for 1 hr with streptavidin-HRP (Jackson ImmunoResearch). (2) For FcγR binding ELISA, human FcγRs soluble ectodomains (2 μg/ml/well) were immobilized to the plate. After being washed, the plates were blocked for 40 minutes with 1×PBS with 10% Bovine serum Albumin and were subsequently incubated for 2 hours with serially diluted IgGs.

[1] = target: T2, human FcγRIIIA soluble ectodomain (ELISA) (human, UniProt P08637 17-208); test: FcγR binding ELISA, plate-bound human FcγRIIIA soluble ectodomain, serially diluted IgG, Δabsorbance 450 nm; panel FcgR3A
T2 construct: extracellular domain
Experimental: as §1

hFcγRIIA R131 = target: T3, hFcγRIIA R131 (human, UniProt P12318 34-218, limits assumed); test: SPR, immobilized FcγRs, soluble IgGs
T3 construct: R131 allotype as printed (131 is mature-protein numbering)
T3 sequence (looked up): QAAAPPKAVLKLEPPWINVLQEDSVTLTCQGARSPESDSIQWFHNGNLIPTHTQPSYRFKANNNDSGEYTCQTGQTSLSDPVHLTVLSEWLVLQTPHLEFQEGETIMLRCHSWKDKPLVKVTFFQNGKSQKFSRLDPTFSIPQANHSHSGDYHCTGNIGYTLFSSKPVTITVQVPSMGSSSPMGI

hFcγRIIB [2] = target: T4, hFcγRIIB (human, UniProt P31994 43-217, limits assumed); test: SPR, immobilized FcγRs, soluble IgGs
T4 construct: also called CD32B; huFcγRIIB
T4 sequence (looked up): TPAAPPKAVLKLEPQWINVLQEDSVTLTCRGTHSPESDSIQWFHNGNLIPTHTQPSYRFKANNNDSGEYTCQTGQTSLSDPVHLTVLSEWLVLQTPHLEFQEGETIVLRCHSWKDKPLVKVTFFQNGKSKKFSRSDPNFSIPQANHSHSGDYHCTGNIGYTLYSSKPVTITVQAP

[3] = target: T5, hFcγRII^F158 (so in the source); read as hFcγRIIIA F158) (human, UniProt P08637 17-208); test: SPR, immobilized FcγRs, soluble IgGs
T5 construct: The head is printed 'hFcγRII^F158'; also called huFcγRIIIA

[4] = target: T6, human FcγRIIIB soluble ectodomain (ELISA) (human, UniProt O75015 17-200, limits assumed); test: FcγR binding ELISA, plate-bound human FcγRIIIB soluble ectodomain, serially diluted IgG, Δabsorbance 450 nm; panel Fcg3B
T6 construct: extracellular domain
Experimental: as §1

hFcγRIIB [5] = target: T4, hFcγRIIB; test: FcγR binding ELISA, plate-bound human FcγRIIB soluble ectodomain, serially diluted IgG, Δabsorbance 450 nm; panel Fcg2B
Experimental: as §1

T5 sequence (P08637 17-208 limits assumed): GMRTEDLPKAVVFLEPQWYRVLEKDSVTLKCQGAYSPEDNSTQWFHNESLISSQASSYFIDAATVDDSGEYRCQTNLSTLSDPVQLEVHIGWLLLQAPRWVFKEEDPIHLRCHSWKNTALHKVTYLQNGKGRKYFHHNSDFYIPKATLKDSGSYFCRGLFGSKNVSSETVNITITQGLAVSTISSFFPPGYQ
T1 sequence (P12314 16-292 limits assumed): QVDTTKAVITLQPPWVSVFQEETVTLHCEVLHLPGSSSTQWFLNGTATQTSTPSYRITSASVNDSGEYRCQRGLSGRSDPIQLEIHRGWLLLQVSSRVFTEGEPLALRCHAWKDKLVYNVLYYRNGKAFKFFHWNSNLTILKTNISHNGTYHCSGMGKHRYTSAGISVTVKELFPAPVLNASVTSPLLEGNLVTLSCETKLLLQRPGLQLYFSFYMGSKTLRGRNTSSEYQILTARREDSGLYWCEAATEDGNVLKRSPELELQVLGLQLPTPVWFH
T2 sequence (P08637 17-208): as the sequence (P08637 17-208 limits assumed) above
T6 sequence (O75015 17-200 limits assumed): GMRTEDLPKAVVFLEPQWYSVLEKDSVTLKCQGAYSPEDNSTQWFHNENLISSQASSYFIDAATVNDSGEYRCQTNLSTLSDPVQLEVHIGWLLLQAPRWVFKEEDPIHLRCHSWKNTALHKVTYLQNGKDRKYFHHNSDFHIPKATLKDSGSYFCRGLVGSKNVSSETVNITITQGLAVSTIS

B2: Avelumab IgG1 (wild type human IgG1) (antibody)
heavy: not shown
light: QSALTQPASVSGSPGQSITISCTGTSSDVGGYNYVSWYQQHPGKAPKLMIYDVSNRPSGVSNRFSGSKSGNTASLTISGLQAEDEADYYCSSYTSSSTRVFGTGTKVTVLGQPKANPTVTLFPPSSEELQANKATLVCLISDFYPGAVTVAWKADGSPVKAGVETTKPSKQSNNKYAASSYLSLTPEQWKSHRSYSCQVTHEGSTVEKTVAPTECS
notes: Made recombinantly in Expi293 cells
binding result (FcgR1): binds
Fold (KD(IgG1)/KD(Fc variant)) (hFcγRIIA R131): 1 fold
Kd (hFcγRIIA R131): 1160 nM
Fold (KD(IgG1)/KD(Fc variant)) (hFcγRIIB [2]): 1 fold
Kd (hFcγRIIB [2]): 3010 nM
Fold (KD(IgG1)/KD(Fc variant)) [3]: 1 fold
Kd [3]: 6700 nM

B3: Avelumab G236A (antibody, human IgG1, lambda)
heavy: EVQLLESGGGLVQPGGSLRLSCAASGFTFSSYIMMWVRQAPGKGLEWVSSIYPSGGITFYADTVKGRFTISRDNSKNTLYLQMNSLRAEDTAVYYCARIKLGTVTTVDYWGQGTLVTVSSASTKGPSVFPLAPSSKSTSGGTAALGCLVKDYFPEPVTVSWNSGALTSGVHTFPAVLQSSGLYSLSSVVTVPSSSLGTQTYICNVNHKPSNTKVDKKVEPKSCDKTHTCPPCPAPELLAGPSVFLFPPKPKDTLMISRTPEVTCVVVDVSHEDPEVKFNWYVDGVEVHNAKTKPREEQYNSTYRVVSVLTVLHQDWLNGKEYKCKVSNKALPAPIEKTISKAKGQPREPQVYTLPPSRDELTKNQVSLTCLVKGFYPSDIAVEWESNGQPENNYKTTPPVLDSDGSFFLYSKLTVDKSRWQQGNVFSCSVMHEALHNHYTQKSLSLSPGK
light: B2 light
Fold (KD(IgG1)/KD(Fc variant)) (hFcγRIIA R131): 9.3 fold
Kd (hFcγRIIA R131): 120 nM
Fold (KD(IgG1)/KD(Fc variant)) (hFcγRIIB [2]): 0.7 fold
Kd (hFcγRIIB [2]): 4380 nM
Fold (KD(IgG1)/KD(Fc variant)) [3]: 1.7 fold
Kd [3]: 3900 nM

B5: Avelumab GASDALIE (G236A/S239D/A330L/I332E) (antibody, human IgG1, lambda)
heavy: EVQLLESGGGLVQPGGSLRLSCAASGFTFSSYIMMWVRQAPGKGLEWVSSIYPSGGITFYADTVKGRFTISRDNSKNTLYLQMNSLRAEDTAVYYCARIKLGTVTTVDYWGQGTLVTVSSASTKGPSVFPLAPSSKSTSGGTAALGCLVKDYFPEPVTVSWNSGALTSGVHTFPAVLQSSGLYSLSSVVTVPSSSLGTQTYICNVNHKPSNTKVDKKVEPKSCDKTHTCPPCPAPELLAGPDVFLFPPKPKDTLMISRTPEVTCVVVDVSHEDPEVKFNWYVDGVEVHNAKTKPREEQYNSTYRVVSVLTVLHQDWLNGKEYKCKVSNKALPLPEEKTISKAKGQPREPQVYTLPPSRDELTKNQVSLTCLVKGFYPSDIAVEWESNGQPENNYKTTPPVLDSDGSFFLYSKLTVDKSRWQQGNVFSCSVMHEALHNHYTQKSLSLSPGK
light: B2 light
notes: also called GASDLIE
Fold (KD(IgG1)/KD(Fc variant)) (hFcγRIIA R131): 24.5 fold
Kd (hFcγRIIA R131): 47 nM
Fold (KD(IgG1)/KD(Fc variant)) (hFcγRIIB [2]): 14 fold
Kd (hFcγRIIB [2]): 230 nM
Fold (KD(IgG1)/KD(Fc variant)) [3]: 29.5 fold
Kd [3]: 227 nM

B6: Avelumab ALIE (A330L/I332E) (antibody, human IgG1, lambda)
heavy: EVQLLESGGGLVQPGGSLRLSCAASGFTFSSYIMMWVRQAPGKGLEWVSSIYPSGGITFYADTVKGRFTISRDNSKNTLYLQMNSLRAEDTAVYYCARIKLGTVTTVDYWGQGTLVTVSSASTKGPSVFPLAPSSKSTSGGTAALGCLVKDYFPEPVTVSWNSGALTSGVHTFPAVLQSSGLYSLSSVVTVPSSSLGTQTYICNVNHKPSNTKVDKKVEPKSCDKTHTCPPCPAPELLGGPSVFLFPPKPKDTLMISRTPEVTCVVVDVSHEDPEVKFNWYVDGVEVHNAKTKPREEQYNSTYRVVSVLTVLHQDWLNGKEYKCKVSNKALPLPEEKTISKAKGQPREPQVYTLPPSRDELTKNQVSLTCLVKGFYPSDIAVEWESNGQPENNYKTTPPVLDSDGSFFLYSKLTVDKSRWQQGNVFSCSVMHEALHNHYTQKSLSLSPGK
light: B2 light
Fold (KD(IgG1)/KD(Fc variant)) (hFcγRIIA R131): 1.2 fold
Kd (hFcγRIIA R131): 950 nM
Fold (KD(IgG1)/KD(Fc variant)) (hFcγRIIB [2]): 1.1 fold
Kd (hFcγRIIB [2]): 2800 nM
Fold (KD(IgG1)/KD(Fc variant)) [3]: 5.4 fold

The next lines start with results.

binding result (FcgR1): binds
EC50 (read off the curve) [1]: ~2 µg/mL
Fold (KD(IgG1)/KD(Fc variant)) (hFcγRIIA R131): 1 fold
Kd (hFcγRIIA R131): 1160 nM
Fold (KD(IgG1)/KD(Fc variant)) (hFcγRIIB [2]): 1.1 fold
Kd (hFcγRIIB [2]): 2800 nM
Fold (KD(IgG1)/KD(Fc variant)) [3]: 11.6 fold
Kd [3]: 578 nM
B1: Avelumab Afucosylated Fc variant (antibody, human IgG1, lambda)
heavy: not shown
light: B2 light
modifications: afucosylated Fc glycan (N297, EU); fucose content of about 28%
notes: also called non-fucosylated Fc glycan

binding result (FcgR1): binds
binding result [4]: no binding (tested: log 2 (100 µg/ml))
binding result (hFcγRIIB [5]): no binding (tested: log 2 (100 µg/ml))
binding result (hFcγRIIA R131): no binding
binding result [3]: no binding
B4: Avelumab N297A (FcγR-binding null IgG1) (antibody, name in EU numbering)
heavy: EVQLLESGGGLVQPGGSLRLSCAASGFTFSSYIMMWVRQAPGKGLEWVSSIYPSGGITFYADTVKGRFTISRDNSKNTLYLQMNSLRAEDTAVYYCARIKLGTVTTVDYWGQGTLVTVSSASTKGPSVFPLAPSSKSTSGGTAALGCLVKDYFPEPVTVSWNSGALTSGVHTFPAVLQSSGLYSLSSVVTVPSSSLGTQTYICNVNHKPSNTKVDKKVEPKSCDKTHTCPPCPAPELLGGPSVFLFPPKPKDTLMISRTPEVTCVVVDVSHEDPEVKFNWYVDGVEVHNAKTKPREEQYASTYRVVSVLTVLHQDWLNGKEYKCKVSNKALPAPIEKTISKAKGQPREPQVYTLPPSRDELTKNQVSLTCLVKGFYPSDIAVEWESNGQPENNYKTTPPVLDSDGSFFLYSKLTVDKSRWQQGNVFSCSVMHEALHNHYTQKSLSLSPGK
light: B2 light
notes: also called Fc-silent (N297A) variant
binding result [1]: no binding (tested: log 1.2 (about 16 µg/ml))
